Key:
[1] = target: RSV prefusion F (preF), DS-Cav1 (Respiratory Syncytial Virus); test: BLI, IgG on anti-human IgG sensor, 100 nM antigen
[2] = target: RSV postfusion F (postF), F deltaFP (Respiratory Syncytial Virus); test: BLI, IgG on anti-human IgG sensor, 100 nM antigen
[3] = target: Respiratory Syncytial Virus fusion glycoprotein (RSV F) on RSV-A2 virus (Respiratory Syncytial Virus subtype A (RSV-A2)); test: cell-based or functional assay

B1: ADI-41205 (antibody, V domains shown)
VH: QVQLQESGPGLVKPSGTLSLTCAVSGGSISSTNWWSWVRQPPGKGLEWIGEIYHSGSTNYNPSLKSRVTISVDKSNNQFSLNLSSVTAADTAVYYCARGVITYRGSWFLQYFDYWGQGTLVTVSS
VL: DIRVTQSPDSLAVSLGERATINCKSSQSLFYSSNNQNYLAWYQQKPGQPPKLLIYWASTRQSGVPHRFSGSGSGTDFTLTISSLQAEDVAVYYCQQYYSSPLTFGGGTKVEIK
Kd [1]: 1.16 nM | Kd [2]: 0.536 nM | Neutralization IC50 (RSV subtype A) [3]: > 25 mg/L

B2: ADI-41224 (antibody, V domains shown)
VH: EVQLVETGGGLVQPGRSLRLSCTASGFTFGDYAMNWVRQAPGKGLEWIGIIRTKTYGGTTEYAASVKGRFTISRDDSKGIAYLQMNSLKTEDTGVYYCTMPVLNMDVWGQGTTVTVSS
VL: QPVLTQPHSVSESPGKTVTISCTRNIGNIASNYVQWYQQRPGSSPTTVIYEDNQRPSGVPDRFSGSIDISSNSASLTISGLKTEDEADYYCQSYDSNNPWVFGGGTQLTVL
Kd [1]: 0.524 nM | Kd [2]: 0.558 nM | Neutralization IC50 (RSV subtype A) [3]: 0.13 mg/L

B3: ADI-41225 (antibody, V domains shown)
VH: EVQLVESGGGLVKPGGSLRLSCAASGFSLSDYYMTWLRQAPGKGLEWVSSIGTTSTYTNYAESVKDRFTISRDNAKNSLYLQMNSLRAEDTAVYYCARDWGFGVERGYFDLWGRGTLVTVSS
VL: DIVLTQTPSTLSASVGDRVTITCRASQSISFWLAWYQQKPGKAPKLLIYKASTLESGVPSRFSGRGSGTDFTLTISSLQPDDFATYYCQQYNTYTWTFGQGTKVEIK
Kd [1]: 4.15 nM | Kd [2]: 0.733 nM | Neutralization IC50 (RSV subtype A) [3]: > 25 mg/L

B4: ADI-41201 (antibody, V domains shown)
VH: EVQLLESGGGLVQPGGSLRLSCAASGFAFDIYSMNWVRQAPGKGLEWLSYISSRGETIYYADSVKGRFTISRDNARNSLYLQMNGLRDEDTATYYCYYYGSGISSHGGAFDYWGQGTLVTVSS
VL: DIVMTQTPATLSLSPGERATLTSRASQSVSSFLAWYQQKPGQAPRLLIYDVSNRATGVPARFSGSGSGTDFTLTISSLEPEDIAVYYCQQRNTWPAITFGQGTKVEIK
Kd [1]: 3.82 nM | Kd [2]: 0.637 nM | Neutralization IC50 (RSV subtype A) [3]: > 25 mg/L

B5: ADI-41215 (antibody, V domains shown)
VH: QVQLVESGGGVVRPGGSLRLSCAASGFTFDDYGMSWVRQAPGKGLEWVSGINWSGGSTDYADSVKGRFTISRDNAKNSLYLQMNSLRAEDTALYYCAKEGQEWELLPWYFDLWGRGTLVTVSS
VL: QPVLTQPASVSGSPGQSITIPCTGTSSDVGIYNLVSWYQQHPGKAPKLMIYDVSKRPSGVSNRFSGSKSGNTASLTISGLQAEDEADYYCCSYAGGSTYVFGTGTKLTVL
Kd [1]: 0.437 nM | Kd [2]: 0.563 nM | Neutralization IC50 (RSV subtype A) [3]: 0.32 mg/L

B6: ADI-41214 (antibody, V domains shown)
VH: EVQLVESGGGLVQPGGSLRLSCAASGFTFSSYWMSWVRQAPGKGLEWVATIKQDGSEKYSVDSVKGRFTISRDNPKKSLYLQMNSLRAEDTAVYYCARDYRVEYYHSSDKLKRYYYYGMDVWGQGTTVTVSS
VL: DIRVTQSPSSLSASVGDRVTITCRASQSISTYLNWYQQKPGKAPKFLIYAASSLESGVPSRFSGSGSGTDFSLTISSLQPEDFATYYCQQSYSIPITFGQGTRLEIK
Kd [1]: 5.7 nM | Kd [2]: 1.02 nM | Neutralization IC50 (RSV subtype A) [3]: > 25 mg/L

B7: ADI-41230 (antibody, V domains shown)
VH: QVQLVQSGAEVKKPGESLKISCKASGYSFTSHYWIGWVRQMPGKGLEWMGFIFPGDSDTRYSPSLQGQVTISADKSTNTAYLQWNSLKASDTAMYYCARLEYLVSGFEYWGQGTLVTVSS
VL: QPGLTQPHSVSESPGKTVTISCTRSSGSIASNYVHWYQQRPGSFPTTVIYEDNQRPSGVPDRFSGSIDSSSNSASLTISGLRTEDEADYYCQSYDSSNPVVFGGGTKVTVL
Kd [1]: 1.83 nM | Kd [2]: 0.407 nM | Neutralization IC50 (RSV subtype A) [3]: 24.1 mg/L

B8: ADI-41207 (antibody, V domains shown)
VH: QVQLVQSGPALVKPTQTLTLTCTFSGFSLSTKGMCVSWIRQPPGKALEWLALIDWDDDKFYSTSLKTRLTISKDTSKNQVVLTMTNMDPVDTATYYCARTLYFYGSGSLSDYCFDYWGQGTPVTVSS
VL: QPVLTQPRSVSGSPGQSVTISCTGTSRDVGNYNFVSWYQQHPGKAPKLIIYDVTKRPSGVPDRFSGSKSGNTASLTISGLQAEDEADYYCCSYAGTYTWVFGGGTKVTVL
Kd [1]: 2.53 nM | Kd [2]: 0.438 nM | Neutralization IC50 (RSV subtype A) [3]: > 25 mg/L

B9: ADI-41231 (antibody, V domains shown)
VH: QVQLVQSGAEVKKPGESLKISCKGSGYSFTNNWVGWVRQMPGKGLEWMGIIFPGDSDTRYSPSFRGQVTISVDTSINTAFLQWNSLGASDTAMYYCAMTDYNYSFKSWGQGTLVTVSS
VL: NFMLTQPHSVSESPGKTITISCTRSSGNIGNNYVQWYQQRPGSSFTTVIYEDYQRPSGVPDRFSGSIDSSSNSATLTISGLKTEDEADYYCQSYDSSNPYVFGTGTKVTVL
Kd [1]: 3.05 nM | Kd [2]: 0.426 nM | Neutralization IC50 (RSV subtype A) [3]: > 25 mg/L

B10: ADI-41212 (antibody, V domains shown)
VH: EVQLLESGAEVKKPGASVKVSCKASGYTFTDYYIHWVRQAPGQGLEWMGRINPKNGDAIYAQNFQGRVTMTRDTSISTAYMEVSRLTSDDTAVYYCARDQMWLVLDYWGQGTLVTVSS
VL: QSALTQPASVSGSPGQSITISCTGTSSDVGGYDYVSWYQQHPGKAPKLMIHDVTNRPSGISHRFSGSKSGNTASLTISGLQAGDEADYYCSSYTRSNTKVFGTGTKVTVL
Kd [1]: 3.18 nM | Kd [2]: 0.4 nM | Neutralization IC50 (RSV subtype A) [3]: > 25 mg/L

B11: ADI-41228 (antibody, V domains shown)
VH: EVQLLESGPGLVKPSETLSLTCTVSGGSISSYQWNWIRQPPGKGLEWLGYVYYSGSTNYNPSLKSRVTLSVDTSKNQFSLKLSSVTAADTAVYYCARDRRDGSFVFDYWGQGTLVTVSS
VL: QSVLIQPASVSGSPGQSITISCTGTSSDVGGYNYVSWYQQHPGKAPKLMIYDVSNRPSGISNRFSGSKSGNTASLTISGLQAEDEADYYCSSYTSSTTLVFGTGTKVTVL
Kd [1]: 4.86 nM | Kd [2]: 0.618 nM | Neutralization IC50 (RSV subtype A) [3]: > 25 mg/L

B12: ADI-41213 (antibody, V domains shown)
VH: EVQLVESGGGLIQPGGSLRLSCAASGFTVSSNYMSWVRQAAGKGLEWVSLIYSGDSTYYADSVKGRFTISRDNSQNTLYLQMNSLRAEDTAVYYCARDASPNVGYYGMDVWGQGTTVTVSS
VL: DIVLTQPPSVSVSPGQTASITCSGGKLGDTYACWYQQKPGQSPVLVIYQDSKRPSGIPERFSGSNSGNTATLTISGTQAMDEADYYCQAWDSSTARYVFGTGTKVTVL
Kd [1]: 3.47 nM | Kd [2]: 0.577 nM | Neutralization IC50 (RSV subtype A) [3]: > 25 mg/L

B13: ADI-41202 (antibody, V domains shown)
VH: QVQLVESGAEVKKPGSSVKISCKASGGTFSSHPISWVRQAPGQGLEWMGRIVPIFGIANYAQKFQGRVTMIADKSTNTAYMELSNLRSEDTAVYYCASPVYDSSGFQWGQGTLVTVSS
VL: QSALIQPRSVSGSPGQSVTISCTGTSGDGGFYNYVSWYQQHPGKTPKLMIYDVDQRPSGVPDRFSGSKSGNTASLTISGLQAEDEADYYCCSYPGNPLYVFGTGTKLTVL
Kd [1]: 1.12 nM | Kd [2]: 0.333 nM | Neutralization IC50 (RSV subtype A) [3]: > 25 mg/L

— patent publication US20260258115A1
